In US20210040193A1 (BEIJING HANMI PHARMACEUTICAL, published 2021):

Assays:
[1] = biological target: T1, Recombinant human PD-1 (Beijing Sino Biological Inc., Catalog No. 10377-H08H) (human, UniProt Q15116 25-167); test: ELISA, human PD-1 coated on the plate, anti-human IgG-HRP detection; control
T1 construct: Bought recombinant protein

[2] = biological target: T1, Recombinant human PD-1 (Beijing Sino …); test: ELISA, human PD-1 coated on the plate, anti-human IgG-HRP detection

T1 sequence (Q15116 25-167 limits assumed): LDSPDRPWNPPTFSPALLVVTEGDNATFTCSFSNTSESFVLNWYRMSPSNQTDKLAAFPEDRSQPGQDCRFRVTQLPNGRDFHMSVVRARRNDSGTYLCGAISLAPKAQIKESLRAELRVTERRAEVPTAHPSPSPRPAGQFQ

B1: PD-1 (BJHM) monoclonal antibody (antibody, V domains shown)
VH: EVNLVESGGGLVQPGGSLRLSCAASGFTFSSYGMSWVRQAPGKGLEWVASISGGGRYTYYPDSMKGRFTISRDNSKNNLYLQMNSLRAEDTAVYYCVYEYFYTMDYWGQGTLVTVSS
VL: DIVLTQSPATLSLSPGERATLSCRASQSISNNLHWYQQKPGQAPRLLIRFASQSISGIPARFSGSGSGTDFTLTISSLEPEDFAVYFCQQSDNWPLTFGGGTKVEIK
notes: Control monoclonal antibody; also called anti-human PD-1 antibody PD-1(BJHM)
Does B1 bind [1]?
Result: binds

B2: anti PD-1(BJHM)/VEGF(Bevaci) heterodimeric antibody (bispecific antibody, human IgG1, kappa, N297A)
heavy 1: EVNLVESGGGLVQPGGSLRLSCAASGFTFSSYGMSWVRQAPGKGLEWVASISGGGRYTYYPDSMKGRFTISRDNSKNNLYLQMNSLRAEDTAVYYCVYEYFYTMDYWGQGTLVTVSSASTKGPSVFPLAPSSKSTSGGTAALGCLVKDYFPEPVTVSWNSGALTSGVHTFPAVLQSSGLYSLSSVVTVPSSSLGTQTYICNVNHKPSNTKVDKKVEPKSCDKTHTCPPCPAPELLGGPSVFLFPPKPKDTLMISRTPEVTCVVVDVSHEDPEVKFNWYVDGVEVHNAKTKPREEQYASTYRVVSVLTVLHQDWLNGKEYKCKVSNKALPAPIEKTISKAKGQPREPQVYTLPPSRDELTKNQVSLLCLVKGFYPSDIAVEWESNGQPENNYKTTPPVLRSDGSFFLYSKLTVDKSRWQQGNVFSCSVMHEALHNHYTQKSLSLSPGK
light 1: DIVLTQSPATLSLSPGERATLSCRASQSISNNLHWYQQKPGQAPRLLIRFASQSISGIPARFSGSGSGTDFTLTISSLEPEDFAVYFCQQSDNWPLTFGGGTKVEIKRTVAAPSVFIFPPSDEQLKSGTASVVCLLNNFYPREAKVQWKVDNALQSGNSQESVTEQDSKDSTYSLSSTLTLSKADYEKHKVYACEVTHQGLSSPVTKSFNRGEC
heavy 2: EVQLVESGGGLVQPGGSLRLSCAASGYTFTNYGMNWVRQAPGKGLEWVGWINTYTGEPTYAADFKRRFTFSLDTSKSTAYLQMNSLRAEDTAVYYCAKYPHYYGSSHWYFDVWGQGTLVTVSSASTKGPSVFPLAPSSKSTSGGTAALGCLVKDYFPEPVTVSWNSGALTSGVHTFPAVLQSSGLYSLSSVVTVPSSSLGTQTYICNVNHKPSNTKVDKKVEPKSCDKTHTCPPCPAPELLGGPSVFLFPPKPKDTLMISRTPEVTCVVVDVSHEDPEVKFNWYVDGVEVHNAKTKPREEQYASTYRVVSVLTVLHQDWLNGKEYKCKVSNKALPAPIEKTISKAKGQPREPQVYTEPPSRDELTKNQVSLTCLVKGFYPSDIAVEWESNGQPENNYKTTPPVLDSDGSFFLLSVLTVDKSRWQQGNVFSCSVMHEALHNHYTQKSLSLSPGK
light 2: not shown
Does B2 bind [2]?
Result: binds

B3: anti-PD-1 (Pembro)/VEGF (G631) heterodimeric antibody (bispecific antibody, human IgG1, kappa, N297A)
heavy 1: QVQLVQSGVEVKKPGASVKVSCKASGYTFTNYYMYWVRQAPGQGLEWMGGINPSNGGTNFNEKFKNRVTLTTDSSTTTAYMELKSLQFDDTAVYYCARRDYRFDMGFDYWGQGTTVTVSSASTKGPSVFPLAPSSKSTSGGTAALGCLVKDYFPEPVTVSWNSGALTSGVHTFPAVLQSSGLYSLSSVVTVPSSSLGTQTYICNVNHKPSNTKVDKKVEPKSCDKTHTCPPCPAPELLGGPSVFLFPPKPKDTLMISRTPEVTCVVVDVSHEDPEVKFNWYVDGVEVHNAKTKPREEQYASTYRVVSVLTVLHQDWLNGKEYKCKVSNKALPAPIEKTISKAKGQPREPQVYTLPPSRDELTKNQVSLLCLVKGFYPSDIAVEWESNGQPENNYKTTPPVLRSDGSFFLYSKLTVDKSRWQQGNVFSCSVMHEALHNHYTQKSLSLSPGK
light 1: EIVLTQSPATLSLSPGERATLSCRASKGVSTSGYSYLHWYQQKPGQAPRLLIYLASYLESGVPARFSGSGSGTDFTLTISSLEPEDFAVYYCQHSRDLPLTFGGGTKVEIKRTVAAPSVFIFPPSDEQLKSGTASVVCLLNNFYPREAKVQWKVDNALQSGNSQESVTEQDSKDSTYSLSSTLTLSKADYEKHKVYACEVTHQGLSSPVTKSFNRGEC
heavy 2: EVQLVESGGGLVQPGGSLRLSCAASGFTISDYWIHWVRQAPGKGLEWVAGITPAGGYTYYADSVKGRFTISADTSKNTAYLQMNSLRAEDTAVYYCARFVFFLPYAMDYWGQGTLVTVSSASTKGPSVFPLAPSSKSTSGGTAALGCLVKDYFPEPVTVSWNSGALTSGVHTFPAVLQSSGLYSLSSVVTVPSSSLGTQTYICNVNHKPSNTKVDKKVEPKSCDKTHTCPPCPAPELLGGPSVFLFPPKPKDTLMISRTPEVTCVVVDVSHEDPEVKFNWYVDGVEVHNAKTKPREEQYASTYRVVSVLTVLHQDWLNGKEYKCKVSNKALPAPIEKTISKAKGQPREPQVYTEPPSRDELTKNQVSLTCLVKGFYPSDIAVEWESNGQPENNYKTTPPVLDSDGSFFLLSVLTVDKSRWQQGNVFSCSVMHEALHNHYTQKSLSLSPGK
light 2: not shown
notes: Heterodimer of two half antibodies; it is not spelled out for this molecule; also called anti-PD-1 (Pembro)/VEGF (G631) heterodimer antibody
Does B3 bind [2]?
Result: binds

B4: anti-PD-1 (BJHM)/VEGF (G631) heterodimeric antibody (bispecific antibody, human IgG1, kappa, N297A)
heavy 1: B2 heavy 1
light 1: B2 light 1
heavy 2: B3 heavy 2
light 2: not shown
Does B4 bind [2]?
Result: binds
